Laboratory results reported in patent US12458691.

Assays:
[1] = target: His-tagged fusion peptide (residue 512-521) (HIV-1 strain BG505); test: SPR, Fab over His-tagged fusion peptide on Ni-NTA chip, 1:1 fit
[2] = target: FP8-3HSH (HIV-1 strain BG505); test: BLI (Octet), IgG on the sensor, apparent KD with IgG avidity
[3] = target: FP8-1Y12 (HIV-1 strain BG505); test: as above
[4] = target: FP-LS (Aquifex aeolicus (strain VF5)) (UniProt O66529); test: apparent KD (table head 'Apparent KD value (nM)'); Octet BLI with IgG on the sensor per paragraph 361
[5] = target: FP8-3HSH (HIV-1 strain BG505); test: apparent KD; Octet BLI, antibody IgG on sensor (method per paragraph 361)
[6] = target: FP8-1Y12 (HIV-1 strain BG505); test: as above
[7] = target: FP8-TTHc (MBS activation, 1:1 molar ratio) (HIV-1 strain BG505); test: Octet, purified conjugate
[8] = target: FP8-TTHc (sulfo-SIAB activation, 0.5:1 molar ratio) (HIV-1 strain BG505); test: Octet, purified conjugate
[9] = target: FP8-TTHc (sulfo-SIAB activation, 1:1 molar ratio) (HIV-1 strain BG505); test: Octet, purified conjugate
[10] = target: FP8-KLH (HIV-1 strain BG505); test: BLI (Octet), IgG on the sensor, apparent KD with IgG avidity
Chain of FP8-KLH (HIV-1 strain BG505) (Q10583 17-3414): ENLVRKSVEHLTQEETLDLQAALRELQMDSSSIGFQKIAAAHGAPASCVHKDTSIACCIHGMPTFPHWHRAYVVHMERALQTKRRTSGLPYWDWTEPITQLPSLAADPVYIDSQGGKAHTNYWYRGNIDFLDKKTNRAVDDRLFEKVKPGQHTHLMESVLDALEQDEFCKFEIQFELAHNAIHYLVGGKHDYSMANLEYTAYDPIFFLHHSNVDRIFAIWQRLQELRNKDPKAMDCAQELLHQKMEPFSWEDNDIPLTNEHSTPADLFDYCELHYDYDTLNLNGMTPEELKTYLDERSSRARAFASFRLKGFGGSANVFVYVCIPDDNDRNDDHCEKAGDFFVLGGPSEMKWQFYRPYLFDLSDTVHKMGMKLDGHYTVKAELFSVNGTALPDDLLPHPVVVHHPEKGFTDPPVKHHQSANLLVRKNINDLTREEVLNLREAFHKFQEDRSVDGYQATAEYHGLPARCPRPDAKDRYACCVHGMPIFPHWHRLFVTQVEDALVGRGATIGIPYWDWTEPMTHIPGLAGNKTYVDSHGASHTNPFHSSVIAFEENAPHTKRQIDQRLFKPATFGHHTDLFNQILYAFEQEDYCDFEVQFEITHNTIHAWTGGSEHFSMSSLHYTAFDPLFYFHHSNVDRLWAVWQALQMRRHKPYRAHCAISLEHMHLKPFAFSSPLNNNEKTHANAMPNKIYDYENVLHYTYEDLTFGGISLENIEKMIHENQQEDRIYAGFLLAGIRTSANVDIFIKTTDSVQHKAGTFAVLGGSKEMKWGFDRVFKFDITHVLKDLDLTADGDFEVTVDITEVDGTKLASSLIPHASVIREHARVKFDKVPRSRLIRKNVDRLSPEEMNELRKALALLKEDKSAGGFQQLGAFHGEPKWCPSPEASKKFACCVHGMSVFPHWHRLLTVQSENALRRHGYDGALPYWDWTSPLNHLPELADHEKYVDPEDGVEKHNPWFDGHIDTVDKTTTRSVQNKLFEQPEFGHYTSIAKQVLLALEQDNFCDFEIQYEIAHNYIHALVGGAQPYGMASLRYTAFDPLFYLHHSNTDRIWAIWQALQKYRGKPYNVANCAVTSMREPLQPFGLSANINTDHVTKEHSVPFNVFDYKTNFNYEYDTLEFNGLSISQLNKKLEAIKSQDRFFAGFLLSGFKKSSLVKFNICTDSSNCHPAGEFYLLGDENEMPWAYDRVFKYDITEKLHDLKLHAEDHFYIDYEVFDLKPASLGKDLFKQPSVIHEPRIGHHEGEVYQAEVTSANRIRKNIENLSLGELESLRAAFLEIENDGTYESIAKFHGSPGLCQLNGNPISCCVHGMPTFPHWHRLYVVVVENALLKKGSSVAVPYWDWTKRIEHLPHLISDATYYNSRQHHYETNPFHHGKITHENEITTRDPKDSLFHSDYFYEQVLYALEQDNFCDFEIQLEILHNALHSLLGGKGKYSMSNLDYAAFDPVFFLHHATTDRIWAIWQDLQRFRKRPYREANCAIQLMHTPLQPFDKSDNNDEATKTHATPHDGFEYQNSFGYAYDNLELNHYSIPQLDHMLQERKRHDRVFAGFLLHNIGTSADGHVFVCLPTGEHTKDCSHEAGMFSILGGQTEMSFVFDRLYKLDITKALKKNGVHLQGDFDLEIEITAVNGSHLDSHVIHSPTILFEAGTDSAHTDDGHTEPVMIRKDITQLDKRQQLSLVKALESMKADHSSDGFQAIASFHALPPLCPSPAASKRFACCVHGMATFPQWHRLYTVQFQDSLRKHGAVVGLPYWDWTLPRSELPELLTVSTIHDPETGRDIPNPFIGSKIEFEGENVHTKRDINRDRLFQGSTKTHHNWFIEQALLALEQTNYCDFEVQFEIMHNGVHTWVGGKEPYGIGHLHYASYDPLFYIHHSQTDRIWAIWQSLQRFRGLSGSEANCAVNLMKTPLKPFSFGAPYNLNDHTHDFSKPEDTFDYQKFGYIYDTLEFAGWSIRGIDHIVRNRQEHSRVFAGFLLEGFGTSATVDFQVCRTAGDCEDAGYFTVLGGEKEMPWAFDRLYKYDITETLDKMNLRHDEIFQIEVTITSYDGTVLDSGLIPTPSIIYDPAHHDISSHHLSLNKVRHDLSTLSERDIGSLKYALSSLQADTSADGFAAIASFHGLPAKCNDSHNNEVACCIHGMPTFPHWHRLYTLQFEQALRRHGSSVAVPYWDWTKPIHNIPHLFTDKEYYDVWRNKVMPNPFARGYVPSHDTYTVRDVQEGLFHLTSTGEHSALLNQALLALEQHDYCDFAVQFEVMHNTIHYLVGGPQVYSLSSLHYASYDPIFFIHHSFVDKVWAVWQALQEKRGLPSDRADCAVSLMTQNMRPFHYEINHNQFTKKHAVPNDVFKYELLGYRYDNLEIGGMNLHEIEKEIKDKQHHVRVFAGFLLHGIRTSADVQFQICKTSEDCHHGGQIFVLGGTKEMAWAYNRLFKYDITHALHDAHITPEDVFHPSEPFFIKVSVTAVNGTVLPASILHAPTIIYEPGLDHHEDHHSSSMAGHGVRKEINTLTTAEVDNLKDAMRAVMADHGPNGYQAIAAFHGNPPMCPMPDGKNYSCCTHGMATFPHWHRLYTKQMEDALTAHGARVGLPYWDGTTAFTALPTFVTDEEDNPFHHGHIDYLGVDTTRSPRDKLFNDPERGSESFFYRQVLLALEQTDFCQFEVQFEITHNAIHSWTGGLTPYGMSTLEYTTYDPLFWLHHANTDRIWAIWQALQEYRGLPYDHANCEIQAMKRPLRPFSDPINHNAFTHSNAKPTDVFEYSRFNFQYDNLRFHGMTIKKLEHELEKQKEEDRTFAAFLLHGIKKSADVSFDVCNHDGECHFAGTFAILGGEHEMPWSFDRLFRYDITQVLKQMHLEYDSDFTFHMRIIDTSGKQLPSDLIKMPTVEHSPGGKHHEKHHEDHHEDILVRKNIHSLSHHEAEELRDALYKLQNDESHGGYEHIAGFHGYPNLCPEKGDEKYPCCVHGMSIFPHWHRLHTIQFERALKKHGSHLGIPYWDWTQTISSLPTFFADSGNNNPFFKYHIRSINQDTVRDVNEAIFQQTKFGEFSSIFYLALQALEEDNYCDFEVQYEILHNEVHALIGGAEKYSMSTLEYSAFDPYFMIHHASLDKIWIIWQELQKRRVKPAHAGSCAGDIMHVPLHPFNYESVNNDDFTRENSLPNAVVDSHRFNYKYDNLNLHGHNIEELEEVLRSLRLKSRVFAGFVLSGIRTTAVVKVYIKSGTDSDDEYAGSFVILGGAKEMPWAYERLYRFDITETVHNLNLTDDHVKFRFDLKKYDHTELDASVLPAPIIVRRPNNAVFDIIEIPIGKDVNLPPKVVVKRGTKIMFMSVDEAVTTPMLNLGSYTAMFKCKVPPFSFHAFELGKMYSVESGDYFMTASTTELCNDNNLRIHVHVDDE

Chain of FP-LS (Aquifex aeolicus (strain VF5)) (O66529 other isoform, or with tags, fused parts or gaps): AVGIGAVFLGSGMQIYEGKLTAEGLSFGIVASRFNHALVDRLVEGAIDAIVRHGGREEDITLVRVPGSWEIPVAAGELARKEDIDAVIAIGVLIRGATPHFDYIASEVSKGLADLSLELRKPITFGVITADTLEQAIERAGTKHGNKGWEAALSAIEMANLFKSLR
Chain of FP8-TTHc (sulfo-SIAB activation, 0.5:1 molar ratio) (HIV-1 strain BG505) (P04958 865-1315, tags left off): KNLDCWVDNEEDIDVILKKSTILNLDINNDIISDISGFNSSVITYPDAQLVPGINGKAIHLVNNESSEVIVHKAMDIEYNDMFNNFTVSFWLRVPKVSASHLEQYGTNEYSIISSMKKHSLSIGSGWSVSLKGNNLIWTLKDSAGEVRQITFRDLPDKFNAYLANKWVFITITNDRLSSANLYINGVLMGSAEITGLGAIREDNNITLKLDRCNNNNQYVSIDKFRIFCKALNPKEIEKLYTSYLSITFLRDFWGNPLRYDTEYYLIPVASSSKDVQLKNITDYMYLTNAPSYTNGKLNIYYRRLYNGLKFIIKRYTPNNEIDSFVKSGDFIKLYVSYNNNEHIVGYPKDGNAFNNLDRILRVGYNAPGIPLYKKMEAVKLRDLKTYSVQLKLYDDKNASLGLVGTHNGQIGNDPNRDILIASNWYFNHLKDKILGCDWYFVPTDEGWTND
Chain of FP8-TTHc (sulfo-SIAB activation, 1:1 molar ratio) (HIV-1 strain BG505) (P04958 865-1315, tags left off): as above
Chain of FP8-TTHc (MBS activation, 1:1 molar ratio) (HIV-1 strain BG505) (P04958 865-1315, tags left off): as above

## VRC34.01 Fab
[1]
  Kd: 6.17 nM
  koff: 0.00924 s⁻¹
  kon: 1.5e+06 M⁻¹ s⁻¹

## PGT151 (antibody)
[2]
  Kd: 47.2 nM
[3]
  Kd: < 0.001 nM
[4]
  Kd: < 0.001 nM
[5]
  Kd: < 0.001 nM
[6]
  Kd: < 0.001 nM
[7]
  Kd: 2.3 nM
[8]
  Kd: 3.6 nM
[9]
  Kd: 2.8 nM

## ACS202 (antibody)
[10]
  Kd: < 0.001 nM
